Reference: paper PMC8469728, “Molecular and Enzymatic Characterization of Flavonoid 3′-Hydroxylase of Malus × domestica” (Plants, 2021)

T1: CsCH3H (Cosmos sulphureus, UniProt D8KZE8)
T1 construct: recombinant, expressed in Saccharomyces cerevisiae INVSc1, microsomal preparation
T1 sequence (D8KZE8 1-512): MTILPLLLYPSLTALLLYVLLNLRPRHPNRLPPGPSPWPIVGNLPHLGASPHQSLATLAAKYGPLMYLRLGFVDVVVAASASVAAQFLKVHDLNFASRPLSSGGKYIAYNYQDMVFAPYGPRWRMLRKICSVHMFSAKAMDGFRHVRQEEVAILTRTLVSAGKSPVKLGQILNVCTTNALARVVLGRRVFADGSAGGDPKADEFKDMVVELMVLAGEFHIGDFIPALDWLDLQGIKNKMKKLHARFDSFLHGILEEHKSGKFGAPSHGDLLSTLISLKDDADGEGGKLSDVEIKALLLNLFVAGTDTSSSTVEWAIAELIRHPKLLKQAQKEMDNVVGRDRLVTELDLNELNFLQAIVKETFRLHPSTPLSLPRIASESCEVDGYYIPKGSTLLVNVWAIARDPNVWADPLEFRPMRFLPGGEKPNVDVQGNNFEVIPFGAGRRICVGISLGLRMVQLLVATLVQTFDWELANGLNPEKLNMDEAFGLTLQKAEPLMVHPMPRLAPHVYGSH


Columns and labels:
CsCH3H = target: T1, CsCH3H; experiment: LC-MS/DAD detection of 3-hydroxyphloretin formed by yeast microsomes; assay type: biochemical; conditions: 10 µM substrate, 1.55 mM NADPH, 100 mM HEPES pH 7.5, 30 °C
[1] = substrate: O=C1C[C@@H](c2ccc(O)cc2)Oc2cc(O)cc(O)c21; experiment: cells, lysate or membranes; assay type: biochemical, Malus domestica; conditions: 0.5 mM NADPH, Tris/HCl pH 6.5–6.75, 25 °C, labelled compound, pH 6.0
[2] = substrate: O=c1c(O)c(-c2ccc(O)cc2)oc2cc(O)cc(O)c12; experiment: cells, lysate or membranes; assay type: biochemical, Malus domestica; conditions: 0.5 mM NADPH, Tris/HCl pH 6.5–6.75, 25 °C, labelled compound, pH 6.0
[3] = substrate: O=C1c2c(O)cc(O)cc2O[C@H](c2ccc(O)cc2)[C@H]1O; experiment: cells, lysate or membranes; assay type: biochemical, Malus domestica; conditions: 0.5 mM NADPH, Tris/HCl pH 6.5–6.75, 25 °C, labelled compound, pH 6.0

Molecule | LC-MS/DAD detection of 3-hydroxyphloretin formed by yeast microsomes (CsCH3H) | Km [1] [µM] | Vmax [1] [µM/min] | Km [2] [µM] | Vmax [2] [µM/min] | Km [3] [µM] | Vmax [3] [µM/min]
O=C(CCc1ccc(O)cc1)c1c(O)cc(O)cc1O [phloretin] | produced sufficient amounts of 3-hydroxyphloretin to be detected by the DAD | – | – | – | – | – | –
MdF3′HI (Malus domestica; I211M) (protein, full-length ORF, 511 residues, C-terminal Twin-Strep-tag, expressed in Saccharomyces cerevisiae INVSc1, microsomal preparation; clone MH468788 has I211 and S224, differing from FJ919631 at both residues (M211 and P224 there)) MFVLIVFTVVFAFFLYRIFAPGGSRHSLPLPPGPKPWPVVGNLPHLGPVPHHSLAALARQYGPLMHLRLGFVDVVVAASASVASQFLKTHDANFSSRPPNSGAKHLAYNYQDLVFAPYGPRWRLLRKISSVHLFSGKALDDLKHVRQEEVGVLAHGLASAGSKPVNLAQLLNVCTVNALGRVMVGRRLFGNGMGGEDPKADEFKSMVVEMMVLAGVFNIGDFISSLEWLDLQGVAGKMKKLHKRFDAFLTAIVEEHKRSRGGKHVDMLTTLLSLKEDADGEGAKLTDTEIKALLLNMFTAGTDTSSSTVEWAIAELLRHPKILAQLQQELDQVVGRDRLVTESDLPNLTYLQAVIKETFRLHPSTPLSLPRMATESCEINGFHIPKGATLLVNVWAVSRDPDQWSEPLEFRPERFMSGGEKPNVDIRGNDFEVIPFGAGRRICAGMSLGLRMVSLMTATLVHGFDWTLADGLTPEKLNMDEAYGLTLQRAAPLMVHPRNRLAPHAYNASSS | – | 2.11 ± 1.5 | 43.8 | 0.21 ± 0.07 | 21 | 0.42 ± 0.06 | 28.2
MdF3′HII (Malus domestica) (protein, full-length ORF, 511 residues, C-terminal Twin-Strep-tag, expressed in Saccharomyces cerevisiae INVSc1, microsomal preparation; differs from FJ919633 at residues 73 and 457) MFVLIFFTVVLAFFLYRLFAPGGSRHALPLPPGPKPWPVVGNLPHLGPVPHHSLAALARQYGPLMHLRLGFADVVVAASASVASQFLKTHDANFSSRPPNSGAKHLAYNYQDLVFAPYGPRWRMLRKISSVHLFSGKALDDLKHVRQEEVGVLAHGLASAGSKPVSLGQLLNVCTVNALGRVMVGRRLFGDGGGREDQKADEFKSMVVEMMVLAGVFNIGDFIPALEWLDLQGVAGKMKKLHKRFDAFLTAIVEDHKRSGEGKHVDMLTTLLSLTDDADGEGAKLTDTEIKALLLNMFTAGTDTSSSTVEWAIAELLRHPKILAQLQQELDQVVGRDRLVTESDLPNLTYLQAVIKETFRLHPSTPLSLPRMASESCEINGFHIPKGATLLVNVWAISRDPAQWSEPLEFRPERFLPGGEKPNVDVKGNDFEVIPFGAGRRICAGMTLGLRMVSLMTATLVHGFDWTLADGLTPEKLNMDEAYGLTLQRAAPLMVHPRNRLAPHAYNASSP | – | 0.31 ± 0.10 | 30 | 0.20 ± 0.02 | 19.8 | 0.31 ± 0.03 | 19.8
